The source of these data is the Human Domainome abundance scans (Beltran et al. 2025).

± gives the uncertainty stated by the source.

This data set can be described thus: abundance fitness (aPCA) (normalised: wild type 0, dead -1); higher = more abundant; growth selection in yeast, the domain comes from the species named. The conditions noted are these: Homo sapiens.
“Lipoamide acyltransferase component of branched-chain alpha-keto acid dehydrogenase complex, mitochondrial I205R, P11182”: the abundance fitness is -0.343 ± 0.035. To “Lipoamide acyltransferase component of branched-chain alpha-keto acid dehydrogenase complex, mitochondrial I205S, P11182” belongs -0.332 ± 0.05.

For “Lipoamide acyltransferase component of branched-chain alpha-keto acid dehydrogenase complex, mitochondrial I205T, P11182”, the abundance fitness is -0.337 ± 0.057.

In turn, “Lipoamide acyltransferase component of branched-chain alpha-keto acid dehydrogenase complex, mitochondrial I205V, P11182” gave an abundance fitness of 0.028 ± 0.042. To “Lipoamide acyltransferase component of branched-chain alpha-keto acid dehydrogenase complex, mitochondrial I205W, P11182” belongs -0.629 ± 0.056.

In the case of “Lipoamide acyltransferase component of branched-chain alpha-keto acid dehydrogenase complex, mitochondrial I205Y, P11182”, the abundance fitness was -0.349 ± 0.15. To “Lipoamide acyltransferase component of branched-chain alpha-keto acid dehydrogenase complex, mitochondrial K187A, P11182” belongs -0.14 ± 0.04; to “Lipoamide acyltransferase component of branched-chain alpha-keto acid dehydrogenase complex, mitochondrial K187C, P11182”, -0.251 ± 0.099; to “Lipoamide acyltransferase component of branched-chain alpha-keto acid dehydrogenase complex, mitochondrial K187D, P11182”, 0.009 ± 0.048. As for “Lipoamide acyltransferase component of branched-chain alpha-keto acid dehydrogenase complex, mitochondrial K187E, P11182”, the figure is -0.133 ± 0.046; as for “Lipoamide acyltransferase component of branched-chain alpha-keto acid dehydrogenase complex, mitochondrial K187G, P11182”, -0.304 ± 0.036.

For the substance “Lipoamide acyltransferase component of branched-chain alpha-keto acid dehydrogenase complex, mitochondrial K187H, P11182”, the abundance fitness was -0.144 ± 0.057. As for “Lipoamide acyltransferase component of branched-chain alpha-keto acid dehydrogenase complex, mitochondrial K187I, P11182”, the figure is -0.078 ± 0.076; as for “Lipoamide acyltransferase component of branched-chain alpha-keto acid dehydrogenase complex, mitochondrial K187L, P11182”, -0.126 ± 0.053.

Take “Lipoamide acyltransferase component of branched-chain alpha-keto acid dehydrogenase complex, mitochondrial K187M, P11182”: the abundance fitness was -0.075 ± 0.12. To “Lipoamide acyltransferase component of branched-chain alpha-keto acid dehydrogenase complex, mitochondrial K187N, P11182” belongs -0.026 ± 0.072; to “Lipoamide acyltransferase component of branched-chain alpha-keto acid dehydrogenase complex, mitochondrial K187P, P11182”, 0.022 ± 0.049. To “Lipoamide acyltransferase component of branched-chain alpha-keto acid dehydrogenase complex, mitochondrial K187Q, P11182” belongs -0.06 ± 0.045.
